Biological target: T1, Stabilin CTD (C-terminal domain of stabilin-2, truncated intracellular region) (human, UniProt Q8WWQ8 2501-2551)
T1 sequence: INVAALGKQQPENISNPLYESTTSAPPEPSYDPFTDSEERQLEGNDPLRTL
Assay: ITC

dH: -1.75 kcal/mol
Binder: MSDKPDMAEIEKFDKSKLKKTETQEKNPLPSKETIEQEKQAGES (natural protein, not fully specified) [Thymosin β4]

From PMC5424802 (Intrinsically Disordered Proteins, 2013)
